Results taken from patent US20250145690A1 (US Dept. of Health and Human Services, published 2025).

Molecular target: T1, HCoV-OC43 spike protein (HCoV-OC43, UniProt P36334 14-1297)
T1 sequence: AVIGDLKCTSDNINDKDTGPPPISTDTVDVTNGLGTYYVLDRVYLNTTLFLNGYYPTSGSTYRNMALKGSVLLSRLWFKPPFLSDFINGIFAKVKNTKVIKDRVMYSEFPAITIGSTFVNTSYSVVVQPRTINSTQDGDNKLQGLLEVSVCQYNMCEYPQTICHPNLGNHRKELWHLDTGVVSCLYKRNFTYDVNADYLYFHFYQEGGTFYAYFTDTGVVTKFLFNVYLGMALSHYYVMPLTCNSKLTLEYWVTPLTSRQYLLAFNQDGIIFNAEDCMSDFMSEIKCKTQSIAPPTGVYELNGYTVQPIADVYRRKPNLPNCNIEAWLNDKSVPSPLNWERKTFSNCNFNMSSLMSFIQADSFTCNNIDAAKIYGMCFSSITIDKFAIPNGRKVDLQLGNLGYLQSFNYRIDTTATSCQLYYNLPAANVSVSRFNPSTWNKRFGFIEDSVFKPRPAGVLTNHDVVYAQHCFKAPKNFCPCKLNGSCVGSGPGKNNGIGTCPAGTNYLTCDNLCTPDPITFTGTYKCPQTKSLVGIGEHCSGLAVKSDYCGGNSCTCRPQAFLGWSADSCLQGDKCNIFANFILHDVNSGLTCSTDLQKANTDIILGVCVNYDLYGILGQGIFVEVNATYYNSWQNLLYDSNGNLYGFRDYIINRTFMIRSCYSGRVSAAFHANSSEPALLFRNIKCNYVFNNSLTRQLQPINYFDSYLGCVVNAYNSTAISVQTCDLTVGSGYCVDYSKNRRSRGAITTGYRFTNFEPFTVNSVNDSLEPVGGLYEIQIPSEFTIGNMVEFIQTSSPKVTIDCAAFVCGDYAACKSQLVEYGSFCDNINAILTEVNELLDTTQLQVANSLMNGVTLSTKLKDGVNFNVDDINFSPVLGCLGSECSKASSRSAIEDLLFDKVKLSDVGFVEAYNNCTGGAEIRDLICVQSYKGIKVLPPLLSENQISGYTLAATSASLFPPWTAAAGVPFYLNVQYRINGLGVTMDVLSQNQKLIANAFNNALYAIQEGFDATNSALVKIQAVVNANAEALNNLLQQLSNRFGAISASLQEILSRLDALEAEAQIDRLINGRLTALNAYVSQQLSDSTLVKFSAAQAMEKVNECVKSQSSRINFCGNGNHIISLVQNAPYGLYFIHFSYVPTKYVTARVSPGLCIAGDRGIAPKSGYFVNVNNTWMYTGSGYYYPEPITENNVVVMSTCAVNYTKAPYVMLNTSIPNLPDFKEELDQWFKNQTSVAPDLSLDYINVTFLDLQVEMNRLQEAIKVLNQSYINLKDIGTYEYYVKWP
Assay: bead flow cytometry, AUC minus CD4

B1: COV23-01 (antibody, V domains shown)
VH: QVTLKESGPVLVKPTETLTLTCTVSGFSLSNTKMGVSWIRQPPGKALEWLAHIFSNDRKSYTTSLKSRLTISEDTSKSQIVLTMTNMDPVDTATYYCARIGAGGTYNFYYYMDVWGKGTTVTVSS
VL: EIVLTQSPATLSLSPGERATLSCRASQSVSSYLAWYQQKPGQAPRLLIYDASNRATGIPARFSGSGSGTDFTLTISSLEPEDFAVYYCQQRSLYYTFGQGTKLEIK
B1: no binding (tested: 200 µg/mL).
